Experimental data published in patent publication US8071348B2, “Protein tyrosine phosphatase substrate-trapping double mutant and uses thereof” (Albert Einstein College of Medicine of Yeshiva University, priority 2002, dated 2011).

Assays:
[1] = target: epidermal growth factor receptor (EGFR) of COS1 cells, tyrosine-phosphorylated (monkey (COS1 cells)); assay: cell-based or functional assay
[2] = target: epidermal growth factor receptor (EGFR) of COS1 cells, tyrosine-phosphorylated (monkey (COS1 cells)); assay: co-immunoprecipitation from EGF-treated COS1 lysates with anti-HA agarose, anti-pTyr blot

With “HA-tagged full-length human PTP1B D181A/Q262A (from UniProt P18031 1-435) (enzyme)” the protection of the phosphorylated EGF receptors in COS1 cells, against the D181A mutant (anti-pTyr immunoblot of lysates) [1] was 3 fold and the fold greater quantity of tyrosine-phosphorylated EGF receptor co-precipitated than with the D181A mutant [2] was greater than 3 fold.
